B1: A-142 probe (DprA promoter) (dsDNA)
DNA 1: GGGCTCCCCGGCTTCTTGACGTAACCCCCAGACATGA
DNA 2: GGGTCATGTCTGGGGGTTACGTCAAGAAGCCGGGGAG
B2: A-23 probe (DprA promoter) (dsDNA)
DNA 1: GGGCAGTTCAAATACAGAACGTCACAAATCTTACACA
DNA 2: GGGTGTGTAAGATTTGTGACGTTCTGTATTTGAACTG
B3: PacC probe (DprB promoter, -264) (dsDNA)
DNA 1: GGGTCGATCCAGGTACCGCCAGGGGTTGATATGACAG
DNA 2: GGGCTGTCATATCAACCCCTGGCGGTACCTGGATCGA

Key:
AtfA::6His = biological target: T1, AtfA::6His (Aspergillus fumigatus AkuB, UniProt Q4WY05 1-555); assay: EMSA
T1 sequence: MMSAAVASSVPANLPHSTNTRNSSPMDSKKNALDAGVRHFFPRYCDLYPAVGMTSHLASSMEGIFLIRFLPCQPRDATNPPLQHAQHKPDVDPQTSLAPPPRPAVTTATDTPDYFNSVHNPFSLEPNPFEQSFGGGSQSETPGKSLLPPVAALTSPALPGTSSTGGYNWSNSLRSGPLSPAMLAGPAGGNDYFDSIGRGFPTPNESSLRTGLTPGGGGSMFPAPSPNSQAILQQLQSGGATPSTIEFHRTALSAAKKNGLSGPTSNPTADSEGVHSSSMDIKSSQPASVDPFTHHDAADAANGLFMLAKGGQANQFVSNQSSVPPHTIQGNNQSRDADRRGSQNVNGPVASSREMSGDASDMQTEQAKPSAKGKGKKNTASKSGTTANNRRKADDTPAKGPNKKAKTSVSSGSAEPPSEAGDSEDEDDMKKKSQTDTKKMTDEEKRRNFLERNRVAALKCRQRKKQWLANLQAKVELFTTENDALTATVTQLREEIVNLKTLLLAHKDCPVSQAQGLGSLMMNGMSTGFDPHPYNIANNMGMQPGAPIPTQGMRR

GST::PacC (30-195*) = GST::PacC (30-195*) (Aspergillus nidulans? (plasmid …, UniProt Q00202 30-195)); assay: EMSA
Sequence of GST::PacC (30-195*) (Aspergillus nidulans? (Q00202 30-195): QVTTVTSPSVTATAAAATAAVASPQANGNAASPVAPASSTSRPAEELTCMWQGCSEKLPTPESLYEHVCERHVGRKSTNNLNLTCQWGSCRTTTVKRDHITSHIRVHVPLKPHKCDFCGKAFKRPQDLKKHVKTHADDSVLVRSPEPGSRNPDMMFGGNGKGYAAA

| Binder | binding result (AtfA::6His) | binding result (GST::PacC (30-195*)) |
| --- | --- | --- |
| B1 | binds | – |
| B2 | binds | – |
| B3 | – | binds |
